B1: 1-phosphatidylinositol 4,5-bisphosphate phosphodiesterase gamma-1 (Rattus norvegicus (Rat)), P10686 (parent)
chain: MAGVGTPCANGCGPSAPSEAEVLHLCRSLEVGTVMTLFYSKKSQRPERKTFQVKLETRQITWSRGADKIEGSIDIREIKEIRPGKTSRDFDRYQEDPAFRPDQSHCFVILYGMEFRLKTLSLQATSEDEVNMWIKGLTWLMEDTLQAATPLQIERWLRKQFYSVDRNREDRISAKDLKNMLSQVNYRVPNMRFLRERLTDFEQRSGDITYGQFAQLYRSLMYSAQKTMDLPFLETNTLRTGERPELCQVSLSEFQQFLLEYQGELWAVDRLQVQEFMLSFLRDPLREIEEPYFFLDELVTFLFSKENSVWNSQLDAVCPETMNNPLSHYWISSSHNTYLTGDQFSSESSLEAYARCLRMGCRCIELDCWDGPDGMPVIYHGHTLTTKIKFSDVLHTIKEHAFVASEYPVILSIEDHCSIAQQRNMAQHFRKVLGDTLLTKPVDIAADGLPSPNQLKRKILIKHKKLAEGSAYEEVPTSVMYSENDISNSIKNGILYLEDPVNHEWYPHYFVLTSSKIYYSEETSSDQGNEDEEEPKEASGSTELHSSEKWFHGKLGAGRDGRHIAERLLTEYCIETGAPDGSFLVRESETFVGDYTLSFWRNGKVQHCRIHSRQDAGTPKFFLTDNLVFDSLYDLITHYQQVPLRCNEFEMRLSEPVPQTNAHESKEWYHASLTRAQAEHMLMRVPRDGAFLVRKRNEPNSYAISFRAEGKIKHCRVQQEGQTVMLGNSEFDSLVDLISYYEKHPLYRKMKLRYPINEEALEKIGTAEPDYGALYEGRNPGFYVEANPMPTFKCAVKALFDYKAQREDELTFTKSAIIQNVEKQDGGWWRGDYGGKKQLWFPSNYVEEMINPAILEPEREHLDENSPLGDLLRGVLDVPACQIAIRPEGKNNRLFVFSISMPSVAQWSLDVAADSQEELQDWVKKIREVAQTADARLTEGKMMERRKKIALELSELVVYCRPVPFDEEKIGTERACYRDMSSFPETKAEKYVNKAKGKKFLQYNRLQLSRIYPKGQRLDSSNYDPLPMWICGSQLVALNFQTPDKPMQMNQALFMAGGHCGYVLQPSTMRDEAFDPFDKSSLRGLEPCVICIEVLGARHLPKNGRGIVCPFVEIEVAGAEYDSTKQKTEFVVDNGLNPVWPAKPFHFQISNPEFAFLRFVVYEEDMFSDQNFLAQATFPVKGLKTGYRAVPLKNNYSEDLELASLLIKIDIFPAKENGDLSPFSGTSLRERASDASSQLFHVRAREGSFEARYQQPFEDFRISQEHLADHFDSRERRAPRRTRVNGDNRL
partner: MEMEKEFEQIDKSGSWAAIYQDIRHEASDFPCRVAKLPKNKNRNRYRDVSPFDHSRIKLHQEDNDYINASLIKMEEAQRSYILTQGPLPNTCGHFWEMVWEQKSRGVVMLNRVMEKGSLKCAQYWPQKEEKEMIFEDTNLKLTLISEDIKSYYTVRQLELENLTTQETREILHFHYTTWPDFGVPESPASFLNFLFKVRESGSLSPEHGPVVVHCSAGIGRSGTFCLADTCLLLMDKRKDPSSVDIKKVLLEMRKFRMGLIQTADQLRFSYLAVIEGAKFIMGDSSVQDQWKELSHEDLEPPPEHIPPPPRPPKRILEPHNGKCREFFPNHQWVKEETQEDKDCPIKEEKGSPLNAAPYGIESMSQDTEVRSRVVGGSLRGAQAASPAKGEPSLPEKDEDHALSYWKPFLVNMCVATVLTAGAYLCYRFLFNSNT
B2: 1-phosphatidylinositol 4,5-bisphosphate phosphodiesterase gamma-1 (Rattus norvegicus (Rat)), P10686 (parent)
chain: B1 chain

Variants of: B1
Conditions: with ptn1_human PTPN1, P18031

R586K was tested. Which “effect of a mutation on the interaction” value did it give?
Its value is “disrupting interaction”.

Variants of: B1
Conditions: with ptn1_human PTPN1, P18031
Remark: another data set of the same source

For P842K, which “effect of a mutation on the interaction” value is on record?
The value was “disrupting interaction”.

Variants of: B2
Conditions: with jak2_mouse Jak2, Q62120

For R586K, which “effect of a mutation on the interaction” value is on record?
Its value is “disrupting interaction”.
